Source: paper PMC7491321

test system: FopA (Salmonella enterica serovar Typhimurium SL1344 (plasmid pCol1B9)); assay: EMSA

Substance | Kd [µM]
Inc-repZ complex | 1
repZ 5'UTR fragment | 1
Inc RNA | 1
